Laboratory results published in patent US20130108609A1.

Molecular target: Snapin, endogenous, in LNCaP cells (human) (UniProt O95295)
Experiment: cell-based or functional assay

UniProt O95295, sequence (O95295 2-136): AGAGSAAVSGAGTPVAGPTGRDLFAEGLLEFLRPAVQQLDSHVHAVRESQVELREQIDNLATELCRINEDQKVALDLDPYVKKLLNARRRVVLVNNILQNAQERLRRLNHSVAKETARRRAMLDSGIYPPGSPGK

Pearson's correlation coefficient of co-localization (double immunofluorescence, cell lamellipodia only): 0.68
Pearson's correlation coefficient of co-localization (double immunofluorescence, whole cell): 0.485
Substance: human TMPAP stably expressed in LNCaP cells (LNCaP pMX TMPAP) (enzyme)
